A short description of experiment [1]: Blood tests: serum biochemical parameters in the various groups of animals. Type of experiment: in vivo, mouse.
Procedure: Animals were sacrificed under anesthesia 28 weeks post natal. At the time of sacrifice, blood was taken by intracardiac stab, and the heart and aorta dissected en bloc. The BMP-7 treated group received intraperitoneal injection of BMP-7 10 μg/kg dry weight once weekly in 100 μl vehicle [mannitol (5% w/v), NaAcetate buffer (20 mM, pH 4.0-4.5), sterile water].
Animals were allocated to one of seven CKD high fat fed groups after the second surgery: Other control Groups included LDLR−/− sham operated mice on chow diet, and LDLR−/− mice with CKD on chow diet. C57B16 WT mice fed chow served as the normal benchmark source. […] Group 1 were LDLR−/− mice on the high fat diet sacrificed at 22 weeks. Group 2 were LDLR−/− mice with CKD fed the high fat diet and treated weekly from 22 to 28 weeks with vehicle IP. […] Group 3 was the first treatment group. These were LDLR−/− mice with CKD on high fat diet that received BMP-7 treatment (10 μg/kg IP weekly). Group 4 were LDLR−/− mice with CKD on high fat diet treated with sevelamer CO3 1%. Group 5 were LDLR−/− mice with CKD on high fat diet treated with sevelamer CO3 3%. […] Once the mice were randomized into groups, they were allowed to develop calcification from weeks 14 through weeks 22 post natal. Therapy was initiated at 23 weeks postnatal and continued until week 28 postnatal at which time the mice were examined.
Blood tests: Serum was analyzed on the day of blood draw for blood urea nitrogen [BUN], cholesterol, calcium and phosphate by standard laboratory methods. Before initiation of therapy, blood was obtained through saphenous vein. At the time of sacrifice, blood was obtained through intracardiac stab.
The test system of experiment [2] is hVSMC. As to the kind of experiment: RT-PCR of osteoblastic differentiation program genes in hVSMC. In kind it is cell-based, human. As to the method: (§1) Cell Culture: Human adult aorta were obtained from seven cadaveric organ donors rejected because of atherosclerosis by Mid-America Transplant Services (St. Louis, Mo.) and enzymatically digested to obtain Human Smooth Muscle Cells (HSMC). Medial tissue was separated from the adventia and intima and digested with collagenase type I (Worthington, Lakewood, N.J.) 2 mg/ml for 1 hr, and washed with Hank's balanced salt solution (HBSS). Further digestion followed with collagenase type II 1 mg/ml (Worthington, Lakewood, N.J.) and elastase 0.25 mg/ml (Worthington, Lakewood, N.J.) for 4 hrs. Cell suspensions were washed twice with HBSS and cultured in T-75 flasks for three weeks in a 95%/5% air/CO2 humidified environment at 37° C. The growth medium used was DMEM containing […] glucose (high glucose), 10% fetal bovine serum (FBS, Atlas, Fort Collins, Colo.), 1 mM sodium pyruvate, 100 units/ml Penicillin and […] Streptomycin (Sigma, St Louis, Mo.). Cell purity was assessed by positive immunostaining for α-smooth muscle actin and calponin and for the absence of von Willebrand factor. In all experimental protocols, cells were seeded at 1×10^5 cells/well in six-well plates. Medium was changed on the first day and every third day thereafter. In all cases, cells used were between passages two and five (Table 3).
RT-PCR: RNA was extracted from cell cultures using RNeasy Mini Kits (Qiagen, Valencia, Calif.). Semi-quantitative RT-PCR was conducted using Roche 1st Strand cDNA Synthesis Kit (Indianapolis, Ind.) and PCR kit from Invitrogen (Grand Island, N.Y.) according to manufacturer's instructions using a two-step method. 1 μg of total RNA was reverse transcribed and random primers were added for 60 min at 42° C., prior to PCR. Forward and Reverse primers (Table 4) were added and the reactions subjected to PCR for 20-35 cycles. The number of cycles necessary to amplify cDNA but remain within the exponential amplification range was determined for each primer set. GAPDH was used as internal standard to assess loading. Genomic contamination was assessed by heat inactivation of the reverse transcriptase prior to RT-PCR. Primers were designed using Vector NTI soft ware (Invitrogen, Grand Island, N.Y.) and optimal conditions for each prime pairs were determined (Table 4). A Perkin-Elmer DNA Thermal Cycler was used to perform the reaction. Products were separated on a 2% agarose E-gel (Invitrogen, Grand Island, N.Y.), and visualized with ethidium bromide. The band intensity was analyzed first by scanning the gel on a Typhoon 9410 gel imager (Amersham Biosciences), quantified by using TotalLab software v2003.03 (Nonlinear Dynamics, Durham, N.C.) and normalized for loading by comparison to GAPGH. Negative controls were performed by inactivating the reverse transcriptase by boiling for 5 min prior to RT-PCR to insure that genomic DNA was not amplified.
Stimulation of osteoblastic differentiation through osterix induction. […] Osterix (E) was only weakly expressed in basal culture conditions. Phosphorus stimulated transcription of osterix (E). […] The data in A-E were normalized to the expression level in basal culture conditions and expressed as fold induction, mean±SEM, n=3. In: Principles of Bone Biology, edited by Bilezikian J P et al., New York, Academic Press, 1996, pp 51-67; Hoffmann H M et al., Proc. Nat. […]

The test system of experiment [3] is hVSMC. The experiment is described as follows: RT-PCR of contractile VSMC markers in hVSMC. In kind it is cell-based, human. As to the method: as §1
RT-PCR: RNA was extracted from cell cultures using RNeasy Mini Kits (Qiagen, Valencia, Calif.). Semi-quantitative RT-PCR was conducted using Roche 1st Strand cDNA Synthesis Kit (Indianapolis, Ind.) and PCR kit from Invitrogen (Grand Island, N.Y.) according to manufacturer's instructions using a two-step method. […] The number of cycles necessary to amplify cDNA but remain within the exponential amplification range was determined for each primer set. […] Genomic contamination was assessed by heat inactivation of the reverse transcriptase prior to RT-PCR. Primers were designed using Vector NTI soft ware (Invitrogen, Grand Island, N.Y.) and optimal conditions for each prime pairs were determined (Table 4). […] The band intensity was analyzed first by scanning the gel on a Typhoon 9410 gel imager (Amersham Biosciences), quantified by using TotalLab software v2003.03 (Nonlinear Dynamics, Durham, N.C.) and normalized for loading by comparison to GAPGH. […]
Expression of contractile VSMC markers in human cells. […] Calponin (Panel A), alpha smooth muscle actin (alpha SMA) (Panel B), heavy chain myosin (MHSCM) (Panel C), and SM22 alpha (Panel D) message levels detected by RT-PCR were low in hVSMC in basal conditions (open bars, Group A) and in the presence of high phosphorus media (black bars, Group B). […] The data in Panels A-D were normalized to the expression level in basal culture conditions and expressed as fold induction, mean±SEM, n=3. […]

In experiment [4] the test system is aortas of LDLR−/− high fat fed mice. As to the kind of experiment: Aortic expression of calcification related genes by real time RT-PCR. Type of experiment: in vivo, mouse. Particulars: CKD mice, BMP-7, 3% CaCO3 or 3% LaCO3 treated. As for the experimental part: Real Time Quantitative RT-PCR: Following reverse transcription performed as above, real time was performed using the MX 4000 (Strategene, La Jolla, Calif.), SYBR Green from Sigma (St. Louis) and the PCR kit from Invitrogen. Each reaction was performed in triplicate at 95° C., 45 sec, and 60° C., 30 sec, and 60 sec at 72° C. for 40 cycles. This was followed by a melt cycle, which consisted of stepwise increase in temperature from 72° C. to 99° C. […] Ct numbers (threshold values) were set within the exponential phase of PCR and were used to calculate the expression levels of the genes of interest. GAPDH was used as an internal standard and used to normalize the values. A standard curve consisting of the cT versus log cDNA dilutions (corresponding to the log copy numbers) was generated by amplifying serial dilutions of cDNA corresponding to an […] amount of amplicon.
Expression of calcification related genes. To relate the mechanism of phosphorus action detected in vitro to this model of CKD induced vascular calcification and hyperphosphatemia in vivo, the inventors of the instant invention analyzed aortic expression of the osteoblastic lineage genes including osterix message levels by real time RT-PCR. […] Data are expressed as the mean of the transcript levels relative to GAPDH expression in each aorta±SEM, N=3. […] (Hoffman 1994;Ducy P. et al., Mol Cell Biol 15:1858-1869, 1995)^32;41
A general note: In qPCR the cycle at which signal appears reflects the starting amount.

B1: BMP-7: bone morphogenetic protein-7 (osteogenic protein-1), mineralization-countering morphogen; provided by Johnson and Johnson (protein, listed as Homo sapiens)
chain: STGSKQRSQNRSKTPKNQEALRMANVAENSSSDQRQACKKHELYVSFRDLGWQDWIIAPEGYAAYYCEGECAFPLNSYMNATNHAIVQTLVHFINPETVPKPCCAPTQLNAISVLYFDDSSNVILKKYRNMVVRACGCH
Take B1: in experiment [1] (CKD high fat fed LDLR-/- mice, treated weeks 22-28 (FIG. 1B, Table 5)), the “serum phosphorus / hyperphosphatemia” value is “reduced to normal levels”. In addition, the Phosphorus in experiment [1] (serum, LDLR-/-, fat diet, CKD, 28 weeks post natal, BMP-7 10 μg/kg IP weekly or binder 3% in diet) is 6.325 ± .471 mg/dL. For the same molecule, the osteocalcin expression entry in experiment [2] (2 mM phosphorus plus 10 ng/ml BMP-7 (FIG. 5A)) is “inhibited osterix and osteocalcin expression”. The BMP-2 expression result in experiment [2] (2 mM phosphorus plus 10 ng/ml BMP-7 (FIG. 5B)) is “failed to affect expression”. Moreover, the RUNX2 expression result in experiment [2] (2 mM phosphorus plus 10 ng/ml BMP-7 (FIG. 5D)) was “failed to affect expression”. Besides, the osterix expression result in experiment [2] (2 mM phosphorus plus 10 ng/ml BMP-7 (FIG. 5E)) was “strongly inhibited osterix expression”. Besides, the Calponin message level result in experiment [3] (high phosphorus media plus BMP-7 (FIG. 8A)) is “induced expression of each of the marker proteins”. Further, in experiment [3] (high phosphorus media plus BMP-7 (FIG. 8B)), the “alpha smooth muscle actin (alpha SMA) message level” value is “induced expression of each of the marker proteins”. For the same molecule, in experiment [3] (high phosphorus media plus BMP-7 (FIG. 8C)), the “heavy chain myosin (MHSCM) message level” value is “induced expression of each of the marker proteins”. In experiment [3] (high phosphorus media plus BMP-7 (FIG. 8D)), the “SM22 alpha message level” value is on record as “induced expression of each of the marker proteins”. Besides, in experiment [4] (relative to GAPDH (FIG. 9B)), the “CBFA1 expression in aorta” value is “inhibited”. Further, in experiment [4] (relative to GAPDH (FIG. 9C)), the “Osterix expression in aorta” value is recorded as “inhibited”. Moreover, the “Osteocalcin expression in aorta” value in experiment [4] (relative to GAPDH (FIG. 9D)) is “inhibited”.

The values above are taken from patent publication US8741840B2, “BMP-7 for use in treating neointimal hyperplasia” (Washington University, priority 2008, dated 2014).
